{
  "source": "patent JPH10324699A",
  "about": "(dated 1998)",
  "data": [
    {"biological_target": "T1, ヒトFas抗原 (ヒトリンパ球細胞株HPB−ALL細胞上) (human, UniProt P25445 26-335)", "T1 sequence (looked up)": "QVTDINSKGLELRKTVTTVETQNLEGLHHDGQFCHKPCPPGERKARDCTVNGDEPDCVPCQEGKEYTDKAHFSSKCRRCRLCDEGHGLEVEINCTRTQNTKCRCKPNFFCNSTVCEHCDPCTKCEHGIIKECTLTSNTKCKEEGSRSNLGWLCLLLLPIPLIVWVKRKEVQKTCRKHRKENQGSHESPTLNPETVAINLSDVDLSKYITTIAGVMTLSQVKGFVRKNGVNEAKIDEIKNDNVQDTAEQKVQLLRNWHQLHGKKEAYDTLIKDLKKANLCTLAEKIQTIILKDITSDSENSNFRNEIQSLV", "test": "cell-based or functional assay", "units": {"ED 50 (細胞生存率が50%になるIgMの濃度; HPB-ALL 細胞, WST-1)": "ng/mL"}, "values": [
      {"binder": "抗ヒトFasヒト化抗体 [B] (pHμM1-1 及び pHκKY2-58 でコ・トランスフェクションしたCOS-7細胞の発現産物; HμM鎖 + VL-KY鎖) (antibody) heavy: EVQLVQSGAEVKKPGASVKVSCKASGYTFTDYNMHWVKQAHGKSLEWMGYIYPYNGGTGYNQKFKSKATLTVDNSASTAYMELSSLRSEDTAVYYCARSYYAMDYWGQGTLVTVSSGSASAPTLFPLVSCENSPSDTSSVAVGCLAQDFLPDSITFSWKYKNNSDISSTRGFPSVLRGGKYAATSQVLLPSKDVMQGTDEHVVCKVQHPNGNKEKNVPLPVIAELPPKVSVFVPPRDGFFGNPRKSKLICQATGFSPRQIQVSWLREGKQVGSGVTTDQVQAEAKESGPTTYKVTSTLTIKESDWLSQSMFTCRVDHRGLTFQQNASSMCVPDQDTAIRVFAIPPSFASIFLTKSTKLTCLVTDLTTYDSVTISWTRQNGEAVKTHTNISESHPNATFSAVGEASICEDDWNSGERFTCTVTHTDLPSPLKQTISRPKGVALHRPDVYLLPPAREQLNLRESATITCLVTGFSPADVFVQWMQRGQPLSPEKYVTSAPMPEPQAPGRYFAHSILTVSEEEWNTGETYICVVAHEALPNRVTERTVDKSTGKPTLYNVSLVMSDTAGTCY light: DVVMTQSPLSLPVTLGQPASISCRSSKSLVHSNGNTYLHWYLQKPGQSPKLLIYKVSNRFSGVPDRFSGSGSGTDFTLKISRVEAEDVGVYYCSQSTHVPPAFGQGTKVEIKRTVAAPSVFIFPPSDEQLKSGTASVVCLLNNFYPREAKVQWKVDNALQSGNSQESVTEQDSKDSTYSLSSTLTLSKADYEKHKVYACEVTHQGLSSPVTKSFNRGEC", "ED 50 (細胞生存率が50%になるIgMの濃度; HPB-ALL 細胞, WST-1)": 1.1},
      {"binder": "抗ヒトFasヒト化抗体 [G] (pHμH5-1 及び pHκKF2-19; HμH鎖 + VL-KF鎖) (antibody, human IgM) heavy: EVQLVQSGAEVKKPGASVKVSCKASGYTFTDYNMHWVRQAPGQGLEWMGYIYPYNGGTGYNQKFKSKATLTVDNSASTAYMELSSLRSEDTAVYYCARSYYAMDYWGQGTLVTVSSGSASAPTLFPLVSCENSPSDTSSVAVGCLAQDFLPDSITFSWKYKNNSDISSTRGFPSVLRGGKYAATSQVLLPSKDVMQGTDEHVVCKVQHPNGNKEKNVPLPVIAELPPKVSVFVPPRDGFFGNPRKSKLICQATGFSPRQIQVSWLREGKQVGSGVTTDQVQAEAKESGPTTYKVTSTLTIKESDWLSQSMFTCRVDHRGLTFQQNASSMCVPDQDTAIRVFAIPPSFASIFLTKSTKLTCLVTDLTTYDSVTISWTRQNGEAVKTHTNISESHPNATFSAVGEASICEDDWNSGERFTCTVTHTDLPSPLKQTISRPKGVALHRPDVYLLPPAREQLNLRESATITCLVTGFSPADVFVQWMQRGQPLSPEKYVTSAPMPEPQAPGRYFAHSILTVSEEEWNTGETYICVVAHEALPNRVTERTVDKSTGKPTLYNVSLVMSDTAGTCY light: DVVMTQSPLSLPVTLGQPASISCRSSKSLVHSNGNTYLHWYLQKPGQSPKLLIYKVSNRFSGVPDRFSGSGSGTDFTLKISRVEAEDVGVYFCSQSTHVPPAFGQGTKVEIKRTVAAPSVFIFPPSDEQLKSGTASVVCLLNNFYPREAKVQWKVDNALQSGNSQESVTEQDSKDSTYSLSSTLTLSKADYEKHKVYACEVTHQGLSSPVTKSFNRGEC", "ED 50 (細胞生存率が50%になるIgMの濃度; HPB-ALL 細胞, WST-1)": 2.4},
      {"binder": "抗ヒトFasヒト化抗体 [D] (pHμM1-1 及び pHκRY2-10; HμM鎖 + VL-RY鎖) (antibody, human IgM) heavy: EVQLVQSGAEVKKPGASVKVSCKASGYTFTDYNMHWVKQAHGKSLEWMGYIYPYNGGTGYNQKFKSKATLTVDNSASTAYMELSSLRSEDTAVYYCARSYYAMDYWGQGTLVTVSSGSASAPTLFPLVSCENSPSDTSSVAVGCLAQDFLPDSITFSWKYKNNSDISSTRGFPSVLRGGKYAATSQVLLPSKDVMQGTDEHVVCKVQHPNGNKEKNVPLPVIAELPPKVSVFVPPRDGFFGNPRKSKLICQATGFSPRQIQVSWLREGKQVGSGVTTDQVQAEAKESGPTTYKVTSTLTIKESDWLSQSMFTCRVDHRGLTFQQNASSMCVPDQDTAIRVFAIPPSFASIFLTKSTKLTCLVTDLTTYDSVTISWTRQNGEAVKTHTNISESHPNATFSAVGEASICEDDWNSGERFTCTVTHTDLPSPLKQTISRPKGVALHRPDVYLLPPAREQLNLRESATITCLVTGFSPADVFVQWMQRGQPLSPEKYVTSAPMPEPQAPGRYFAHSILTVSEEEWNTGETYICVVAHEALPNRVTERTVDKSTGKPTLYNVSLVMSDTAGTCY light: DVVMTQSPLSLPVTLGQPASISCRSSKSLVHSNGNTYLHWYLQKPGQSPRLLIYKVSNRFSGVPDRFSGSGSGTDFTLKISRVEAEDVGVYYCSQSTHVPPAFGQGTKVEIKRTVAAPSVFIFPPSDEQLKSGTASVVCLLNNFYPREAKVQWKVDNALQSGNSQESVTEQDSKDSTYSLSSTLTLSKADYEKHKVYACEVTHQGLSSPVTKSFNRGEC", "ED 50 (細胞生存率が50%になるIgMの濃度; HPB-ALL 細胞, WST-1)": 1.7},
      {"binder": "抗ヒトFasヒト化抗体 [C] (pHμM1-1 及び pHκKF2-19; HμM鎖 + VL-KF鎖) (antibody, human IgM) heavy: EVQLVQSGAEVKKPGASVKVSCKASGYTFTDYNMHWVKQAHGKSLEWMGYIYPYNGGTGYNQKFKSKATLTVDNSASTAYMELSSLRSEDTAVYYCARSYYAMDYWGQGTLVTVSSGSASAPTLFPLVSCENSPSDTSSVAVGCLAQDFLPDSITFSWKYKNNSDISSTRGFPSVLRGGKYAATSQVLLPSKDVMQGTDEHVVCKVQHPNGNKEKNVPLPVIAELPPKVSVFVPPRDGFFGNPRKSKLICQATGFSPRQIQVSWLREGKQVGSGVTTDQVQAEAKESGPTTYKVTSTLTIKESDWLSQSMFTCRVDHRGLTFQQNASSMCVPDQDTAIRVFAIPPSFASIFLTKSTKLTCLVTDLTTYDSVTISWTRQNGEAVKTHTNISESHPNATFSAVGEASICEDDWNSGERFTCTVTHTDLPSPLKQTISRPKGVALHRPDVYLLPPAREQLNLRESATITCLVTGFSPADVFVQWMQRGQPLSPEKYVTSAPMPEPQAPGRYFAHSILTVSEEEWNTGETYICVVAHEALPNRVTERTVDKSTGKPTLYNVSLVMSDTAGTCY light: DVVMTQSPLSLPVTLGQPASISCRSSKSLVHSNGNTYLHWYLQKPGQSPKLLIYKVSNRFSGVPDRFSGSGSGTDFTLKISRVEAEDVGVYFCSQSTHVPPAFGQGTKVEIKRTVAAPSVFIFPPSDEQLKSGTASVVCLLNNFYPREAKVQWKVDNALQSGNSQESVTEQDSKDSTYSLSSTLTLSKADYEKHKVYACEVTHQGLSSPVTKSFNRGEC", "ED 50 (細胞生存率が50%になるIgMの濃度; HPB-ALL 細胞, WST-1)": 1},
      {"binder": "抗ヒトFasヒト化抗体 [E] (pHμM1-1 及び pHκRF2-52; HμM鎖 + VL-RF鎖) (antibody, human IgM) heavy: EVQLVQSGAEVKKPGASVKVSCKASGYTFTDYNMHWVKQAHGKSLEWMGYIYPYNGGTGYNQKFKSKATLTVDNSASTAYMELSSLRSEDTAVYYCARSYYAMDYWGQGTLVTVSSGSASAPTLFPLVSCENSPSDTSSVAVGCLAQDFLPDSITFSWKYKNNSDISSTRGFPSVLRGGKYAATSQVLLPSKDVMQGTDEHVVCKVQHPNGNKEKNVPLPVIAELPPKVSVFVPPRDGFFGNPRKSKLICQATGFSPRQIQVSWLREGKQVGSGVTTDQVQAEAKESGPTTYKVTSTLTIKESDWLSQSMFTCRVDHRGLTFQQNASSMCVPDQDTAIRVFAIPPSFASIFLTKSTKLTCLVTDLTTYDSVTISWTRQNGEAVKTHTNISESHPNATFSAVGEASICEDDWNSGERFTCTVTHTDLPSPLKQTISRPKGVALHRPDVYLLPPAREQLNLRESATITCLVTGFSPADVFVQWMQRGQPLSPEKYVTSAPMPEPQAPGRYFAHSILTVSEEEWNTGETYICVVAHEALPNRVTERTVDKSTGKPTLYNVSLVMSDTAGTCY light: DVVMTQSPLSLPVTLGQPASISCRSSKSLVHSNGNTYLHWYLQKPGQSPRLLIYKVSNRFSGVPDRFSGSGSGTDFTLKISRVEAEDVGVYFCSQSTHVPPAFGQGTKVEIKRTVAAPSVFIFPPSDEQLKSGTASVVCLLNNFYPREAKVQWKVDNALQSGNSQESVTEQDSKDSTYSLSSTLTLSKADYEKHKVYACEVTHQGLSSPVTKSFNRGEC", "ED 50 (細胞生存率が50%になるIgMの濃度; HPB-ALL 細胞, WST-1)": 1.5},
      {"binder": "抗ヒトFasヒト化抗体 [I] (pHμH5-1 及び pHκRF2-52; HμH鎖 + VL-RF鎖) (antibody, human IgM) heavy: EVQLVQSGAEVKKPGASVKVSCKASGYTFTDYNMHWVRQAPGQGLEWMGYIYPYNGGTGYNQKFKSKATLTVDNSASTAYMELSSLRSEDTAVYYCARSYYAMDYWGQGTLVTVSSGSASAPTLFPLVSCENSPSDTSSVAVGCLAQDFLPDSITFSWKYKNNSDISSTRGFPSVLRGGKYAATSQVLLPSKDVMQGTDEHVVCKVQHPNGNKEKNVPLPVIAELPPKVSVFVPPRDGFFGNPRKSKLICQATGFSPRQIQVSWLREGKQVGSGVTTDQVQAEAKESGPTTYKVTSTLTIKESDWLSQSMFTCRVDHRGLTFQQNASSMCVPDQDTAIRVFAIPPSFASIFLTKSTKLTCLVTDLTTYDSVTISWTRQNGEAVKTHTNISESHPNATFSAVGEASICEDDWNSGERFTCTVTHTDLPSPLKQTISRPKGVALHRPDVYLLPPAREQLNLRESATITCLVTGFSPADVFVQWMQRGQPLSPEKYVTSAPMPEPQAPGRYFAHSILTVSEEEWNTGETYICVVAHEALPNRVTERTVDKSTGKPTLYNVSLVMSDTAGTCY light: DVVMTQSPLSLPVTLGQPASISCRSSKSLVHSNGNTYLHWYLQKPGQSPRLLIYKVSNRFSGVPDRFSGSGSGTDFTLKISRVEAEDVGVYFCSQSTHVPPAFGQGTKVEIKRTVAAPSVFIFPPSDEQLKSGTASVVCLLNNFYPREAKVQWKVDNALQSGNSQESVTEQDSKDSTYSLSSTLTLSKADYEKHKVYACEVTHQGLSSPVTKSFNRGEC", "ED 50 (細胞生存率が50%になるIgMの濃度; HPB-ALL 細胞, WST-1)": 3.4},
      {"binder": "マウス抗ヒトFas抗体CH11(MBL社) (antibody, mouse IgM) heavy: EVQLQQSGPELVKPGASVKISCKASGYTFTDYNMHWVKQSHGKSLEWIGYIYPYNGGTGYNQKFKSKATLTVDNSSSTAYMELRSLTSEDSAVYYCARSYYAMDYWGQGTSVTVSSESQSFPNVFPLVSCESPLSDKNLVAMGCLARDFLPSTISFTWNYQNNTEVIQGIRTFPTLRTGGKYLATSQVLLSPKSILEGSDEYLVCKIHYGGKNRDLHVPIPAVAEMNPNVNVFVPPRDGFSGPAPRKSKLICEATNFTPKPITVSWLKDGKLVESGFTTDPVTIENKGSTPQTYKVISTLTISEIDWLNLNVYTCRVDHRGLTFLKNVSSTCAASPSTDILTFTIPPSFADIFLSKSANLTCLVSNLATYETLNISWASQSGEPLETKIKIMESHPNGTFSAKGVASVCVEDWNNRKEFVCTVTHRDLPSPQKKFISKPNEVHKHPPAVYLLPPAREQLNLRESATVTCLVKGFSPADISVQWLQRGQLLPQEKYVTSAPMPEPGAPGFYFTHSILTVTEEEWNSGETYTCVVGHEALPHLVTERTVDKSTGKPTLYNVSLIMSDTGGTCY light: DVVMTQSPLSLPVSLGDQASISCRSSKSLVHSNGNTYLHWYLQKPGQSPKLLIYKVSNRFSGVPDRFSGSGSGTDFTLKISRVEAEDLGVYFCSQSTHVPPAFGGGTKLEIKRADAAPTVSIFPPSSEQLTSGGASVVCFLNNFYPKDINVKWKIDGSERQNGVLNSWTDQDSKDSTYSMSSTLTLTKDEYERHNSYTCEATHKTSTSPIVKSFNRNEC DDEATILADNKCMCTRVTSRIIPSTEDPNEDIVERNIRIVVPLNNRENISDPTSPLRRNFVYHLSDVCKKCDPVEVELEDQVVTATQSNICNEDDGVPETCYMYDRNKCYTTMVPLRYHGETKMVQAALTPDSCYPD", "ED 50 (細胞生存率が50%になるIgMの濃度; HPB-ALL 細胞, WST-1)": 10.7}
    ]}
  ]
}
